Laboratory results: patent publication US12559863B2, “Macrocyclic modulators of disease associated protein misfolding and aggregation” (RESQ BIOTECH, priority 2017, dated 2026)

Columns and labels:
[1] = target: T1, SOD1(A4V)-GFP (Homo sapiens, UniProt P00441, A5V); experiment: Fluorescence of E. coli cells co-expressing SOD1(A4V)-GFP and cyclic peptide; assay type: cell-based; settings: co-expression of cyclic peptide; compared to random cyclic peptides from initial library
T1 construct: polyHis; expressed in transfected cells; host or cells: E. coli Origami 2(DE3) (BL21(DE3) for the FACS screen)
T1 sequence (P00441 whole entry A5V): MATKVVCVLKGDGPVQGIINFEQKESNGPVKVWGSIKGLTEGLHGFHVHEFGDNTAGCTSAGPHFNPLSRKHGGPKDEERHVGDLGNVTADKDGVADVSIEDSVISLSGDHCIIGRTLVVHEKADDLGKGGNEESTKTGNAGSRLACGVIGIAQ
Excerpt: Electrocompetent E. coli BL21(DE3) cells (Novagen, USA) carrying either the expression vector pETSOD1(A4V)-GFP, which produces SOD1(A4V)-GFP under control of the strong bacteriophage T7 promoter, or pETAβ42-GFP, which produces Aβ42-GFP under control of the T7 promoter, were co-transformed with the combined pSICLOPPS-NuX1X2X3-X5 vector library. Approximately 10^8 transformants carrying both the vector library and either pETSOD1(A4V)-GFP or pETAβ42-GFP vectors were harvested, pooled together, and grown in Luria-Bertani (LB) liquid medium containing either 0.005% (pETSOD1(A4F)-GFP) or 0.002% (pETAβ42-GFP) L-arabinose—the inducer of cyclic peptide production—at 37° C. with shaking. When the optical density at 600 nm (OD600) of the bacterial culture was about 0.5, 0.01 (pETSOD1(A4F)-GFP) or 0.1 (pETAβ42-GFP) mM isopropyl-β-D-thiogalactoside (IPTG) was added to the medium to induce overexpression of the reporter. […] The isolated cells were re-grown and screened for additional rounds in an identical manner until the desired enrichment in high-fluorescence clones was achieved.
For SOD1 or SOD1-GFP production, BL21(DE3) (Novagen, USA) or Origami 2(DE3) cells (Novagen, USA) were transformed with the corresponding SOD1- or SOD1-GFP-encoding vector, either with the appropriate pSICLOPPS vector or alone. […]
Bacterial cells corresponding to 1 mL culture with OD600=1 were harvested by centrifugation and re-suspended in 100 μL phosphate-buffered saline (PBS), transferred to a 96-well FLUOTRAC 200 plate (Greiner Bio One International, Austria), and their fluorescence was measured using a TECAN Safire II-Basic plate reader (Tecan, Austria). Excitation was set at 488 nm and emission was measured at 510 nm.

[2] = target: T2, Aβ42-GFP (Homo sapiens, UniProt P05067); experiment: High-throughput sequencing of pSICLOPPS vectors isolated after bacterial sorting for enhanced Aβ42-GFP fluorescence; settings: for Reads/Total TXXXR reads (%): relative to total TXXXR reads
T2 construct: a chimeric fusion of the human Aβ(1-42) peptide (Aβ42) with GFP; expressed in transfected cells; host or cells: E. coli BL21(DE3)
Summary of the method: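 E. coli BL21(DE3) expressing Aβ42-GFP from the T7 promoter was co-transformed with cyclic peptide libraries (0.002% L-arabinose, 0.1 mM IPTG at OD600 ~0.5, 37° C). High-fluorescence cells were sorted over repeated rounds. Plasmid peptide-encoding regions were then sequenced by Ion Torrent, discarding sequences with stop codons.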

[3] = after the second round of bacterial sorting
[4] = after the second round of bacterial sorting, relative to total pentapeptide reads
[5] = after the second round of bacterial sorting, relative to total peptide reads
[6] = high-throughput sequencing of isolated pSICLOPPS-NuX1X2X3-X5 vectors after the second round of bacterial sorting for enhanced Aβ42-GFP fluorescence, selected cyclo-TXXXR pentapeptides
[7] = after the second round of bacterial sorting for enhanced Aβ42-GFP fluorescence
[8] = after the second round of bacterial sorting for enhanced Aβ42-GFP fluorescence, relative to total pentapeptide reads
[9] = after the second round of bacterial sorting for enhanced Aβ42-GFP fluorescence, relative to total peptide reads
[10] = pSICLOPPS-NuX1X2X3-X5 vectors after the second round of bacterial sorting for enhanced Aβ42-GFP fluorescence
[11] = Table 4, hexapeptides, after second round of sorting

| Substance | Reads/Total TXXXR reads (%) [2, 3] [%] | Reads/Total pentapeptide reads (%) [2, 4] [%] | Reads/Total peptide reads (%) [2, 5] [%] | Number of reads [2, 6] | also measured |
| --- | --- | --- | --- | --- | --- |
| cyclo-TFSMW (cyclic) |  |  |  |  | SOD1(A4V)-GFP fluorescence of E. coli cells [1]: highest levels of cellular SOD1(A4V)-GFP fluorescence |
| cyclo-TASFW (cyclic) |  |  |  |  | SOD1(A4V)-GFP fluorescence of E. coli cells [1]: highest levels of cellular SOD1(A4V)-GFP fluorescence |
| AβC5-294 (TTPHR; cyclic) | 0.011 | 0.005 | 0.005 | 207 |  |
| AβC5-385 (TTLYR; head-to-tail cyclic) |  |  |  |  | Reads/Total TXXXR reads (%) [2, 7]: 0.005%; Reads/Total pentapeptide reads (%) [2, 8]: 0.002%; Reads/Total peptide reads (%) [2, 9]: 0.002%; Number of reads [2, 10]: 90 |
| AβC5-453 (TLFWR; cyclic pentapeptide) |  |  |  |  | Reads/Total TXXXR reads (%) [2, 7]: 0.003%; Reads/Total pentapeptide reads (%) [2, 8]: 0.001%; Reads/Total peptide reads (%) [2, 9]: 0.001%; Number of reads [2, 10]: 57 |
| AβC5-359 (TAMWR; head-to-tail cyclic) | 0.006 | 0.003 | 0.002 | 110 |  |
| AβC5-305 (TTADR; cyclic) | 0.010 | 0.004 | 0.004 | 181 |  |
| AβC5-215 (TTPWR; cyclic) | 0.028 | 0.013 | 0.012 | 524 |  |
| AβC5-389 (THLDR; head-to-tail cyclic) |  |  |  |  | Reads/Total TXXXR reads (%) [2, 7]: 0.005%; Reads/Total pentapeptide reads (%) [2, 8]: 0.002%; Reads/Total peptide reads (%) [2, 9]: 0.002%; Number of reads [2, 10]: 89 |
| AβC5-29 (TTLER; cyclic) | 1.447 | 0.678 | 0.607 | 27,514 |  |
| AβC5-325 (TVWIR; head-to-tail cyclic) | 0.008 | 0.004 | 0.003 | 144 |  |
| AβC5-66 (TTHWR; cyclic pentapeptide) | 0.752 | 0.352 | 0.316 | 14,304 |  |
| cyclo-TRGR [AβC4-34] |  |  |  |  | Normalized read number (%) ([2]; Table 3, cyclo-TXXR tetrapeptides): 0.3047% |
| AβC5-441 (TAWDR; cyclic pentapeptide) |  |  |  |  | Reads/Total TXXXR reads (%) [2, 7]: 0.003%; Reads/Total pentapeptide reads (%) [2, 8]: 0.002%; Reads/Total peptide reads (%) [2, 9]: 0.001%; Number of reads [2, 10]: 61 |
| TPALVD [AβC6-53] |  |  |  |  | Reads/Total hexapeptide reads (%) ([2]; Table 4): 0.046%; Reads/Total peptide reads (%) ([2]; Table 4): 0.005%; Number of reads [2, 11]: 208 |
| AβC5-413 (TSHAR; cyclic pentapeptide) |  |  |  |  | Reads/Total TXXXR reads (%) [2, 7]: 0.004%; Reads/Total pentapeptide reads (%) [2, 8]: 0.002%; Reads/Total peptide reads (%) [2, 9]: 0.002%; Number of reads [2, 10]: 74 |

| Substance | Reads/Total TXXXR reads (%) [2, 3] [%] | Reads/Total pentapeptide reads (%) [2, 4] [%] | Reads/Total peptide reads (%) [2, 5] [%] | Number of reads [2, 6] | also measured |
| --- | --- | --- | --- | --- | --- |
| AβC5-121 (TIKDR; cyclic) | 0.209 | 0.098 | 0.088 | 3,970 |  |
| AβC5-448 (TAYAR; cyclic pentapeptide) |  |  |  |  | Reads/Total TXXXR reads (%) [2, 7]: 0.003%; Reads/Total pentapeptide reads (%) [2, 8]: 0.001%; Reads/Total peptide reads (%) [2, 9]: 0.001%; Number of reads [2, 10]: 58 |
| AβC5-382 (TTITR; head-to-tail cyclic) | 0.005 | 0.002 | 0.002 | 92 |  |
| AβC5-317 (TTAWR; head-to-tail cyclic) | 0.008 | 0.004 | 0.003 | 156 |  |
| AβC5-162 (TSVWR; cyclic) | 0.058 | 0.027 | 0.024 | 1,094 |  |
| AβC5-67 (TARDR; cyclic pentapeptide) | 0.747 | 0.350 | 0.314 | 14,213 |  |
| AβC5-46 (TLLWR; cyclic pentapeptide) | 1.049 | 0.492 | 0.440 | 19,957 |  |
| TLSVFD [AβC6-57] |  |  |  |  | Reads/Total hexapeptide reads (%) ([2]; Table 4): 0.039%; Reads/Total peptide reads (%) ([2]; Table 4): 0.004%; Number of reads [2, 11]: 176 |
| cyclo-SITPT [AβC5-380] |  |  |  |  | Reads/Total SASPT-like reads (%) ([2]; Table 2): 0.356%; Reads/Total pentapeptide reads (%) ([2]; Table 2): 0.002%; Reads/Total peptide reads (%) ([2]; Table 2): 0.002%; Number of reads ([2]; Table 2, after second round of sorting): 94 |
| AβC5-218 (TVLHR; cyclic) | 0.026 | 0.012 | 0.011 | 497 |  |
| AβC5-2 (TTYAR; cyclic) | 16.023 | 7.506 | 6.727 | 304,753 |  |
| AβC5-483 (TRVGR; cyclic pentapeptide) |  |  |  |  | Reads/Total TXXXR reads (%) [2, 7]: 0.003%; Reads/Total pentapeptide reads (%) [2, 8]: 0.001%; Reads/Total peptide reads (%) [2, 9]: 0.001%; Number of reads [2, 10]: 50 |
| AβC5-185 (TTFNR; cyclic) | 0.042 | 0.020 | 0.018 | 800 |  |
| AβC5-475 (TTGDR; cyclic pentapeptide) |  |  |  |  | Reads/Total TXXXR reads (%) [2, 7]: 0.003%; Reads/Total pentapeptide reads (%) [2, 8]: 0.001%; Reads/Total peptide reads (%) [2, 9]: 0.001%; Number of reads [2, 10]: 51 |
| AβC5-315 (TTSER; head-to-tail cyclic) | 0.008 | 0.004 | 0.003 | 158 |  |
| AβC5-278 (TTWLR; cyclic) | 0.013 | 0.006 | 0.005 | 241 |  |
